Experimental data reported in patent US20110118131A1 (published 2011).
Substitutions are numbered along the chain they refer to. Names may count otherwise. “And” between values parts separate entries of the source, which are not always exact repeats. Identical values can stand only once.

T1: Ep-CAM (UniProt P16422 24-265)
T1 chain: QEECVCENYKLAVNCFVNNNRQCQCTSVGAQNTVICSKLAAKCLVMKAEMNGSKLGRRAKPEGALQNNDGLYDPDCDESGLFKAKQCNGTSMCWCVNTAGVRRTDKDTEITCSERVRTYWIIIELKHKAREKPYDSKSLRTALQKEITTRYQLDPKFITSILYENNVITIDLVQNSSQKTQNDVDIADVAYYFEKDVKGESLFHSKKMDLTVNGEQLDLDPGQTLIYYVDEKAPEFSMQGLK

B1: modified ING-1 IgG with a 102G substitution (antibody, V domains shown)
VH: QIQLVQSGPELKKPGETVKISCKASGYTFTKYGMNWVKQAPGKGLKWMGWINTYTEEPTYGDDFKGRFAFSLETSASTANLQINNLKSEDTATYFCARFGSGVDYWGQGTSVTVSS
VL: QIVMTQAAFSNPVTLGTSGSISCRSSKSLLHSNGITYLYWYLQKPGQSPQLLIYQMSNLASGVPDRFSSSGSGTDFTLRISRVEAEDVGVYYCAQNLELPRTFGGGTKLEMKR
B2: modified ING-1 IgG with an A102F substitution (antibody, V domains shown)
VH: B1 VH with G102F
VL: B1 VL
B3: XPA23 heavy chain G102P (Fab, V domains shown)
VH: EVQLLESGGGLVQPGGSLRLSCAASGFTFSKYFMFWVRQAPGKGLEWVSVISPSGGMTRYADSVKGRFTISRDNSKNTLYLQMNSLRAEDTAVYYCARVGYPGNSDYWGQGTLVTVSS
VL: DIQMTQSPSSVSASVGDRLTIICRASQDINRWLAWYQQTPGNAPKLLIHSATSLQSGVPSRFSGSGSGTDFTLTINSLQPEDFATYYCQQADSFPLTFGGGTKVEIK
notes: Fab, periplasmic extract; also called C5A G102P
B4: XPA23 heavy chain G102V (Fab, V domains shown)
VH: B3 VH with P102V
VL: B3 VL
notes: Fab, periplasmic extract; also called C5A G102V
B5: XPA23 heavy chain I51P (Fab, V domains shown)
VH: B3 VH with I51P, P102G
VL: B3 VL
notes: Fab, periplasmic extract; also called C5A I51P
B6: XPA23 heavy chain K31P (Fab, V domains shown)
VH: B3 VH with K31P, P102G
VL: B3 VL
notes: Fab, periplasmic extract; also called C5A K31P
B7: XPA23 heavy chain K31T (Fab, V domains shown)
VH: B3 VH with K31T, P102G
VL: B3 VL
notes: Fab, periplasmic extract; also called C5A K31T
B8: XPA23 heavy chain M57P (Fab, V domains shown)
VH: B3 VH with M57P, P102G
VL: B3 VL
notes: Fab, periplasmic extract; also called C5A M57P
B9: XPA23 heavy chain R59A (Fab, V domains shown)
VH: B3 VH with R59A, P102G
VL: B3 VL
notes: Fab, periplasmic extract; also called C5A R59A
B10: XPA23 heavy chain R59I (Fab, V domains shown)
VH: B3 VH with R59I, P102G
VL: B3 VL
notes: Fab, periplasmic extract; also called C5A R59I
B11: XPA23 heavy chain R59V (Fab, V domains shown)
VH: B3 VH with R59V, P102G
VL: B3 VL
notes: Fab, periplasmic extract; also called C5A R59V
B12: XPA23 heavy chain S30P (Fab, V domains shown)
VH: B3 VH with S30P, P102G
VL: B3 VL
notes: Fab, periplasmic extract; also called C5A S30P
B13: XPA23 heavy chain S30V (Fab, V domains shown)
VH: B3 VH with S30V, P102G
VL: B3 VL
notes: Fab, periplasmic extract; also called C5A S30V
B14: XPA23 heavy chain S52I (Fab, V domains shown)
VH: B3 VH with S52I, P102G
VL: B3 VL
notes: Fab, periplasmic extract; also called C5A S52I
B15: XPA23 heavy chain S52L (Fab, V domains shown)
VH: B3 VH with S52L, P102G
VL: B3 VL
notes: Fab, periplasmic extract; also called C5A S52L
B16: XPA23 heavy chain S105L (Fab, V domains shown)
VH: B3 VH with P102G, S105L
VL: B3 VL
notes: Fab, periplasmic extract; also called C5A S105L
B17: XPA23 heavy chain V50P (Fab, V domains shown)
VH: B3 VH with V50P, P102G
VL: B3 VL
notes: Fab, periplasmic extract; also called C5A V50P
B18: XPA23 heavy chain V99L (Fab, V domains shown)
VH: B3 VH with V99L, P102G
VL: B3 VL
notes: Fab, periplasmic extract; also called C5A V99L
B19: XPA23 heavy chain V99P (Fab, V domains shown)
VH: B3 VH with V99P, P102G
VL: B3 VL
notes: Fab, periplasmic extract; also called C5A V99P
B20: XPA23 heavy chain Y32A (Fab, V domains shown)
VH: B3 VH with Y32A, P102G
VL: B3 VL
notes: Fab, periplasmic extract; also called C5A Y32A
B21: XPA23 heavy chain Y101G (Fab, V domains shown)
VH: B3 VH with Y101G, P102G
VL: B3 VL
notes: Fab, periplasmic extract; also called C5A Y101G
B22: XPA23 (IL-1 antibody) (antibody, V domains shown)
VH: B3 VH with P102G
VL: B3 VL
notes: also called cA5; C5A
B23: modified XPA23 Y208L mutant (antibody, V domains shown)
VH: B3 VH with Y101L, P102G
VL: B3 VL

Assays:
biotinylated Ep-Cam = biotinylated Ep-Cam (UniProt P16422); assay: DELFIA competition, negative control well, biotinylated Ep-Cam, plate-coated parental ING-1 IgG as competitor
Ep-CAM [1] = target: T1, Ep-CAM; assay: Biacore SPR; Fig. 15C
Ep-CAM [2] = target: T1, Ep-CAM; assay: Biacore SPR; Fig. 15B
IL-1β [3] = target: T2, IL-1β (UniProt P01584 117-269); assay: Biacore, Fab periplasmic extract; -1 = no binding by the table's footnote
T2 construct: Antigen of XPA23

IL-1β [4] = target: IL-1β (UniProt P01584 117-269); assay: Biacore kinetic titration, IL-1β amine coupled to CM5 chip, 25 C
Protocol: In an exemplary method, an antigen such as IL-1β is amine coupled to a CM5 sensor chip. Each sample (e.g., from lowest to highest concentration) may be injected for 240 seconds at a flow rate of 30 µl/min at a selected temperature (e.g., 25° C.). Sample are allowed to dissociate for 30 seconds except the highest concentration which may be permitted 300 seconds to dissociate. The assay is run at 25° C.
Biaevaluation software (e.g., Biacore 2000 evaluation software) is used to calculate dissociation rates of individual samples and the relative amount of sample bound to each test surface. The data is fit to an appropriate kinetic model (e.g., the kinetic titration model).

Row | Molecule | binding result (IL-1β [3]) | other results
1 | negative control (wells E12-H12) | – | Percentage of inhibition (biotinylated Ep-Cam): -0.4% and 0.1% and 0.3%
2 | B1 | – | Kd (Ep-CAM [1]): 0.6 nM
3 | B2 | – | Kd (Ep-CAM [2]): 0.9 nM
4 | B3 | no binding | –
5 | B4 | no binding | –
6 | B5 | no binding | –
7 | B6 | no binding | –
8 | B7 | no binding | –
9 | B8 | no binding | –
10 | B9 | no binding | –
11 | B10 | no binding | –
12 | B11 | no binding | –
13 | B12 | no binding | –
14 | B13 | no binding | –
15 | B14 | no binding | –
16 | B15 | no binding | –
17 | B16 | no binding | –
18 | B17 | no binding | –
19 | B18 | no binding | –
20 | B19 | no binding | –
21 | B20 | no binding | –
22 | B21 | no binding | –
23 | B22 | – | Kd (IL-1β [4]): 46 nM
24 | B23 | – | Kd (IL-1β [4]): 16.2 nM
